US6881719B2, “β-turn peptidomimetic cyclic compounds” (McGill University, priority 2000, dated 2005)
“And” between values parts separate entries of the source, which are not always exact repeats. Equal values may be shown once. Positions of bridges follow the written chain, without caps; N, C: chain ends. Non-standard residues stand in square brackets, D forms with d. 5‑nitrobenzoyl = N-terminal 5-nitrobenzoyl group, introduced by coupling 2-fluoro-5-nitrobenzoyl chloride; hSer = N[C@@H](CCO)C(=O)O

Key:
[1] = molecular target: human TrkA expressed on transfected cells (4-3.6 cells; NIH3T3-TrkA cells) (human) (UniProt P04629); experiment: FACScan, 4-3.6 cells, avidin-FITC
[2] = molecular target: human TrkA expressed on transfected cells (4-3.6 cells; NIH3T3-TrkA cells) (human) (UniProt P04629); experiment: FACScan, 4-3.6 cells (p75+ TrkA+), avidin-FITC
[3] = molecular target: p75 NGF receptor on B104 rat neuroblastoma cells and 4-3.6 cells (rat) (UniProt P07174); experiment: FACScan, B104 cells (p75+ TrkA-), avidin-FITC
[4] = test system: embryonic rat DRG primary neuronal cultures; experiment: Cell survival (MTT), primary DRG cultures; type: cell-based; conditions: 8 days;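 for % Protection: 100% equals survival with optimal NGF at 1 nM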
Description: Fetal rat DRG primary cultures were established from Sprague Dawley day 17 rat embryos. All ganglia were dissected and dissociated first enzymatically with trypsin and then mechanically. Dissociated cells were cultured (10^5 cells/well) in 96 well plates pre-coated with collagen, and grown for a total of 8 days in Neuro Basal Medium containing N2 supplement (GIBCO, Toronto), antibiotics, and L-glutamine. These DRG cultures are ˜85% TrkA-expressing and are heavily dependent on TrkA signals for survival.
Primary DRG cultures: After a total of 8 days of culture with the indicated test or control ligands, cell survival were studied using the 3(4,5-Dimethylthiazolyl-2)-2,5-diphenyl tetrazolium bromide colorimetric (MTT) assay, and by microscopic observation.
(§1) Cell lines: 5,000 cells/well in protein-free media (PFHM-II, GIBCO, Toronto) containing 0.2% bovine serum albumin (BSA) (Crystalline fraction V, Sigma, St. Louis, Mo.) were seeded in 96 well plates (Falcon, Mississauga, Ontario). The cultures were untreated, or treated with the indicated test or control ligands. Cell viability was quantitated using the MTT assay after 56-72 hours of culture. […] The OD of untreated cells were subtracted. The higher optical density of untreated primary cultures is likely due to cellular heterogeneity and to endogenous production of limiting amounts of growth factors.

[5] = molecular target: T1, NIH3T3 fibroblasts expressing TrkC (Homo sapiens, UniProt Q16288); experiment: Cell survival (MTT), NIH-TrkC; type: cell-based; conditions: 72 hours
T1 construct: expressed in transfected cells; host or cells: NIH3T3 fibroblasts
Text: (§2) The 4-3.6 cells are B104 cells stably transfected with human trkA cDNA, and express equal levels of p75 and TrkA (TrkA+ p75+). For screening agents that activate or antagonize TrkC receptors, NIH3T3 fibroblasts were stably transfected with human TrkC cDNA. These cells respond to the ligand NT-3. For screening agents that activate or antagonize TrkA receptors, NIH3T3 fibroblasts were stably transfected with human TrkA cDNA. These cells respond to the ligand NGF.
as §1

B104 cells = experiment: Cell survival control, B104 cells; type: cell-based, rat
Text: as §2, §1

[6] = test system: wild type NIH3T3 fibroblasts; experiment: Cell survival (MTT), NIH wt; type: cell-based; conditions: 72 hours
Text: as §2, §1

septal neuronal cultures = experiment: ChAT activity in septal neuronal cultures; type: cell-based, rat; conditions: day 8
Description: Cell cultures were established from the septal area of 17-day-old rat embryos. In brief, tissue was incubated in PBS containing trypsin and DNase. Tissue pieces then were mechanically dissociated. After centrifugation, the pellet was suspended in Leibovitz's L-15 medium. Cells were plated onto 96-multiwell NUNC dishes (10^5 cells/well) coated with poly-D-lysine (5 μg/ml). Pure cultures of septal neurons were treated 1 day after plating. Drugs, prepared in medium, were added directly to the cells without changing the initial medium. The incubation continued for 8 days, at which time ChAT activity was evaluated.
At day 8 of culture, the medium was aspirated, and ice-cold lysis buffer (10 mM sodium phosphate, pH 7.4/0.1% TritonX-100—Trade-mark) was added. ChAT activity assays were performed directly in the wells using Fonnum's method (Fonnum, 1975).

[7] = test system: TrkB-expressing HEK293 cells; experiment: Cell survival control, TrkB-expressing HEK293 cells; type: cell-based
Description: as §1

wild type HEK293 cells = experiment: Cell survival control, wild type HEK293 cells; type: cell-based
Description: as §1

[8] = Proteolytic stability, then trophic assay on 4-3.6 cells; conditions: exposure to trypsin or pepsin (D3: 1 hour)
Description: The proteolytic stability of D3 versus trypsin and papain was assessed. D3 was first exposed to enzymatic treatment as described previously (Saragovi et al., 1992), followed by gauging its biological activity on 4-3.6 cells.

[9] = molecular target: recombinant baculovirus TrkA-extracellular domain protein (TrkA-ECD) (UniProt P04629); experiment: competition ELISA, mAb 5C3 2 nM on immobilized TrkA-ECD, competitor D3 40 µM
[10] = molecular target: recombinant baculovirus TrkA-extracellular domain protein (TrkA-ECD) (UniProt P04629); experiment: competition ELISA, mAb 5C3 2 nM on immobilized TrkA-ECD, competitor D3 1 µM
[11] = molecular target: human TrkA expressed on transfected cells (4-3.6 cells; NIH3T3-TrkA cells) (human) (UniProt P04629); experiment: FACScan competition, 4-3.6 cells, mAb 5C3 1 nM, competitor D3 40 µM
[12] = molecular target: recombinant baculovirus TrkA-extracellular domain protein (TrkA-ECD) (UniProt P04629); experiment: competition ELISA, mAb 5C3 2 nM on immobilized TrkA-ECD, competitor D3 0.2 µM
[13] = molecular target: human TrkA expressed on transfected cells (4-3.6 cells; NIH3T3-TrkA cells) (human) (UniProt P04629); experiment: cell-based or functional assay
[14] = molecular target: p75 NGF receptor on B104 rat neuroblastoma cells and 4-3.6 cells (rat) (UniProt P07174); experiment: FACScan, B104 cells (p75+ TrkA-), D3-biotin 20 µM with 10-fold molar excess of D3, avidin-FITC
[15] = molecular target: recombinant baculovirus TrkA-extracellular domain protein (TrkA-ECD) (UniProt P04629); experiment: competition ELISA, mAb 5C3 2 nM on immobilized TrkA-ECD, competitor D3 20 µM
[16] = molecular target: human TrkA expressed on transfected cells (4-3.6 cells; NIH3T3-TrkA cells) (human) (UniProt P04629); experiment: FACScan, 4-3.6 cells (p75+ TrkA+), D3-biotin 20 µM with 10-fold molar excess of D3, avidin-FITC
[17] = molecular target: human TrkA expressed on transfected cells (4-3.6 cells; NIH3T3-TrkA cells) (human) (UniProt P04629); experiment: estimated from FACScan competition against mAb 5C3 on 4-3.6 cells
[18] = molecular target: recombinant baculovirus TrkA-extracellular domain protein (TrkA-ECD) (UniProt P04629); experiment: calculated from competition ELISA against mAb 5C3 on immobilized TrkA-ECD
[19] = molecular target: human TrkA expressed on transfected cells (4-3.6 cells; NIH3T3-TrkA cells) (human) (UniProt P04629); experiment: FACScan competition, 4-3.6 cells, mAb 5C3 1 nM, competitor D3 5 µM
[20] = molecular target: human TrkA expressed on transfected cells (4-3.6 cells; NIH3T3-TrkA cells) (human) (UniProt P04629); experiment: FACScan competition, 4-3.6 cells, mAb 5C3 1 nM, competitor D3 0.20 µM
[21] = molecular target: recombinant baculovirus TrkA-extracellular domain protein (TrkA-ECD) (UniProt P04629); experiment: competition ELISA, mAb 5C3 2 nM on immobilized TrkA-ECD, competitor D3 5 µM
[22] = molecular target: TrkA on primary rat embryonic neurons (DRG and septal cultures) (rat, UniProt P35739 33-799); experiment: cell-based or functional assay
[23] = molecular target: recombinant baculovirus TrkA-extracellular domain protein (TrkA-ECD) (UniProt P04629); experiment: competition ELISA, mAb 5C3 2 nM on immobilized TrkA-ECD, competitor D3 0.05 µM
[24] = molecular target: p75 NGF receptor on B104 rat neuroblastoma cells and 4-3.6 cells (rat) (UniProt P07174); experiment: FACScan competition, 4-3.6 cells, mAb MC192 1 nM, competitor D3 40 µM
[25] = molecular target: human TrkA expressed on transfected cells (4-3.6 cells; NIH3T3-TrkA cells) (human) (UniProt P04629); experiment: FACScan competition, 4-3.6 cells, mAb 5C3 1 nM, competitor D3 1 µM

Chain of human TrkA expressed on transfected cells (4-3.6 cells; NIH3T3-TrkA cells) (human) (P04629 33-796): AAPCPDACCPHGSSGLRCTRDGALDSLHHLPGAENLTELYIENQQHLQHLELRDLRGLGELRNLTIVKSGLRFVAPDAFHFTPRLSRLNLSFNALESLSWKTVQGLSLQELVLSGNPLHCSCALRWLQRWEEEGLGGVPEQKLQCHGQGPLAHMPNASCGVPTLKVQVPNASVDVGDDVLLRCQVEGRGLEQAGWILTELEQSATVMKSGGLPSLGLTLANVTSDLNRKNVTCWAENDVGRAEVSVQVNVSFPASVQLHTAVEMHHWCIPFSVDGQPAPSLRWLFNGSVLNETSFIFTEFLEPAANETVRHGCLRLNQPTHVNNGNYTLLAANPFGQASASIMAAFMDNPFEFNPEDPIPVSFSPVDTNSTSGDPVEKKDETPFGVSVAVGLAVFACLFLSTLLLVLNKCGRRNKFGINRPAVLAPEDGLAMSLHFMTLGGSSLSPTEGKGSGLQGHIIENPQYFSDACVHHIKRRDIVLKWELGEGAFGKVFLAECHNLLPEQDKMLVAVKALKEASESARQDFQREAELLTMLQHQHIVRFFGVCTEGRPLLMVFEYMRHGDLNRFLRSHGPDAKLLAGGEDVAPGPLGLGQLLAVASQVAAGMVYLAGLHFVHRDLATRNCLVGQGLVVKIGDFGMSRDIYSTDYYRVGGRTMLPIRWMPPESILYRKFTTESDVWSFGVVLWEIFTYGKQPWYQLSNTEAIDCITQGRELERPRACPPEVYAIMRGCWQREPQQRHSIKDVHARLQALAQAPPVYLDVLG
Chain of p75 NGF receptor on B104 rat neuroblastoma cells and 4-3.6 cells (rat) (P07174 30-425): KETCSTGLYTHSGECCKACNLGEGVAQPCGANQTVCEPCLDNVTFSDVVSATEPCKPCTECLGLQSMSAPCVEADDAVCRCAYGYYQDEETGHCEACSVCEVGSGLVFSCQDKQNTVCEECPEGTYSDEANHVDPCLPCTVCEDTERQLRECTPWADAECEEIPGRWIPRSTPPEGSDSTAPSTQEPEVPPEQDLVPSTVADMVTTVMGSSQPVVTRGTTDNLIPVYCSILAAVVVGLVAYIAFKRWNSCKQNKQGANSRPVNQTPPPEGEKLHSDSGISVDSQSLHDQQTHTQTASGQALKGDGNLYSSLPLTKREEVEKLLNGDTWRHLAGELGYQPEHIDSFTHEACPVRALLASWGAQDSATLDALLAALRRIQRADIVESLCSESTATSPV
Chain of TrkA on primary rat embryonic neurons (DRG and septal cultures) (P35739 33-799): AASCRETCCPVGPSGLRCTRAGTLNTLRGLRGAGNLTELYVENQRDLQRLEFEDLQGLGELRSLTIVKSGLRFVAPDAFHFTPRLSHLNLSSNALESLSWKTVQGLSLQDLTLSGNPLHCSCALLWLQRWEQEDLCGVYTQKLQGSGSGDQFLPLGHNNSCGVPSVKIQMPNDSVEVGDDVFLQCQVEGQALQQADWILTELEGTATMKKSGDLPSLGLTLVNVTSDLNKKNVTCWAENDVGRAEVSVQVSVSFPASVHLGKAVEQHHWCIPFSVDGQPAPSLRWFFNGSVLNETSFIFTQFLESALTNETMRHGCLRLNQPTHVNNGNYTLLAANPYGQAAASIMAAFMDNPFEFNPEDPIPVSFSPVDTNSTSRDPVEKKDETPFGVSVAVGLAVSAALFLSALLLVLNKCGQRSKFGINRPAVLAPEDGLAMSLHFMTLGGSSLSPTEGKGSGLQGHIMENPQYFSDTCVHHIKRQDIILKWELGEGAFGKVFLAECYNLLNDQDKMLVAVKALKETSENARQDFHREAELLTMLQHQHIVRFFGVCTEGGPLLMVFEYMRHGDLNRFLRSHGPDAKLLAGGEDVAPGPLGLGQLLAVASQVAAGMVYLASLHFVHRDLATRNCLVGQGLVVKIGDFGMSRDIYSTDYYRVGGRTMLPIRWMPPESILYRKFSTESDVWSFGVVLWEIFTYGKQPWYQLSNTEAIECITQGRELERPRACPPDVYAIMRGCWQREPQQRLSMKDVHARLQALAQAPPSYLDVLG
Chain of recombinant baculovirus TrkA-extracellular domain protein (TrkA-ECD) (P04629 33-423 limits assumed): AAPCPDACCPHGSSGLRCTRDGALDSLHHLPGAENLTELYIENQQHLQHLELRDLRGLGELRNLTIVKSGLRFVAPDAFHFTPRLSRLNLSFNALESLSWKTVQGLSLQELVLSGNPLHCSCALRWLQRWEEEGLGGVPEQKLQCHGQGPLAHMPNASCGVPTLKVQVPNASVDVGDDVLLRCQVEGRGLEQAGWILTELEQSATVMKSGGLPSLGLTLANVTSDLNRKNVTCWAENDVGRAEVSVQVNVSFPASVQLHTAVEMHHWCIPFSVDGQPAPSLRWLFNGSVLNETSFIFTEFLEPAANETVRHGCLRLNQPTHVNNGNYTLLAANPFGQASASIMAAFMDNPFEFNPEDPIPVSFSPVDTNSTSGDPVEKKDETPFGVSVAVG
T1 sequence (Q16288 32-839): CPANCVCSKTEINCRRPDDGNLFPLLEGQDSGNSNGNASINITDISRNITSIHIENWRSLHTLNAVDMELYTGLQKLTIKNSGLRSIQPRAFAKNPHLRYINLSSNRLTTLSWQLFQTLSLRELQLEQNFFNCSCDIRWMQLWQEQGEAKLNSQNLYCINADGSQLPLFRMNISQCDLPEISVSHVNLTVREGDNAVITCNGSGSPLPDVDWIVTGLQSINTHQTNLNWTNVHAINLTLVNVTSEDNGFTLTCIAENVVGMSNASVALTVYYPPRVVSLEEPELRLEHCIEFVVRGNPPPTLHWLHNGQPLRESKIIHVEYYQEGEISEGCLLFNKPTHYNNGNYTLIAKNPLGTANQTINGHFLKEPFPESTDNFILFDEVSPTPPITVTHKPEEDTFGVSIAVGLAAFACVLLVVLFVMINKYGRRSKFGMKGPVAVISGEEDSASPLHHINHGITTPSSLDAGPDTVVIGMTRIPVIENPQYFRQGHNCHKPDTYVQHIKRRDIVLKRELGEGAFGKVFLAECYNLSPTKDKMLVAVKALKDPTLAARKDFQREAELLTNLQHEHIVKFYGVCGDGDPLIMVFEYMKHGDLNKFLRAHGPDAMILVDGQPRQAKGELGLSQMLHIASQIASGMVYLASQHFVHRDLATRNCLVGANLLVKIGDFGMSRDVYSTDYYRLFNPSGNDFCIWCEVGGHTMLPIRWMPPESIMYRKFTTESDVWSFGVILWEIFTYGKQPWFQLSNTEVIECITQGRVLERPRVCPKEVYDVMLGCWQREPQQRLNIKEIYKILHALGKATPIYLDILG

“D3-biotin (biotin derivative of D3) (peptide)” showed a fold fluorescence over control peptide-biotin [1] of 4 fold, an MCF [2] of 53 MCF and an MCF [3] of 10 MCF.

For “NGF: neurotrophin nerve growth factor, natural ligand of TrkA”, the “% Protection” value ([4]; NGF 20 pM) was 9 ± 1%, the “Optical Density” value ([4]; NGF 20 pM) was 316 ± 11 and the “% Protection” value ([4]; NGF 500 pM) was 68 ± 3%. For the same molecule, the “Optical Density” value ([4]; NGF 500 pM) was 535 ± 19, the “Optical Density” value ([4]; NGF 1 nM) was 823 ± 28 and the “% Protection” value ([4]; NGF 1 nM, relative to 1 nM NGF) was 100 ± 4%. The “NIH-TrkC % Protection” value ([5]; 10 pM NGF) was 2 ± 4%, the “NIH-TrkC % Protection” value ([5]; 1 nM NGF) was 5 ± 6% and the protection from apoptosis (B104 cells) was “neither D3 nor NGF protected”. For the same molecule, the “NIH wt % Protection” value ([6]; 10 pM NGF) was 5 ± 7% and 3 ± 5%, the “NIH wt % Protection” value ([6]; 1 nM NGF) was 5 ± 12% and 4 ± 6% and the “ChAT Activity” value (septal neuronal cultures; 10 pM NGF) was 0.42 ± 0.07 pmol Ach/min/well. For the same molecule, the “ChAT Activity” value (septal neuronal cultures; 400 pM NGF) was 0.72 ± 0.10 pmol Ach/min/well, the protection from apoptosis [7] was “neither D3 nor NGF protected” and the protection from apoptosis (wild type HEK293 cells) was “neither D3 nor NGF protected”. The “biological activity in trophic assays after enzymatic treatment” value [8] was “lost all activity within minutes”.

B1: D3 (EKHse-G-OH), β-turn peptidomimetic cyclic compound (peptide)
peptide: {5‑nitrobenzoyl}-EK[hSer]G-OH
modifications: bridge N-3
Molecule B1 has a % Binding of mAb 5C3 [9] of 31%, a % Binding of mAb 5C3 [10] of 64% and a % Maximal binding of mAb 5C3 [11] of 33%. For the same molecule, the % Binding of mAb 5C3 [12] was 89%, the % Protection (MTT, 4-3.6 cells), 10 µM D3 [13] was 8% and the % Protection (MTT, 4-3.6 cells), 10 µM D3 + 10 pM NGF [13] was 55%. It also gave a % Protection (MTT, NIH-TrkA), 10 µM D3 [13] of 8%, a % Protection (MTT, NIH-TrkA), 10 µM D3 + 10 pM NGF [13] of 51% and an Optical Density (MTT survival, 4-3.6 cells), 10 µM D3 [13] of 95 OD. For the same molecule, the Optical Density (MTT survival, 4-3.6 cells), 10 µM D3 + 10 pM NGF [13] was 255 OD, the intensity of the Mr 300 kDa band (putative TrkA·TrkA dimers) after cross-linking, standardized to 1 nM NGF (100%), 10 pM NGF + 10 µM D3 [13] was 77% and the intensity of the Mr 300 kDa band (putative TrkA·TrkA dimers) after cross-linking, standardized to 1 nM NGF (100%), 10 µM D3 alone [13] was 21%. The MCF of D3-biotin in the presence of competitor D3 [14] was 11 MCF, the % Binding of mAb 5C3 [15] was 38% and the MCF of D3-biotin in the presence of competitor D3 [16] was 17 MCF. It also gave a Kd [17] of 2 µM, a Kd [18] of 2 µM and a % Maximal binding of mAb 5C3 [19] of 53%. For the same molecule, the % Maximal binding of mAb 5C3 [20] was 95%, the % Binding of mAb 5C3 [21] was 43% and the “ChAT Fold Increase, 0.2 µM D3” value [22] was 1.23 fold. For the same molecule, the “ChAT Fold Increase, 0.2 µM D3 + 10 pM NGF” value [22] was 2 fold, the “ChAT Fold Increase, 2 µM D3” value [22] was 1.47 fold and the “ChAT Fold Increase, 2 µM D3 + 10 pM NGF” value [22] was 2.53 fold. The “ChAT Fold Increase, 20 µM D3” value [22] was 1.56 fold, the “ChAT Fold Increase, 20 µM D3 + 10 pM NGF” value [22] was 2.63 fold and the % Binding of mAb 5C3 [23] was 100%. For the same molecule, the % Maximal binding of mAb MC192 [24] was 101% and the % Maximal binding of mAb 5C3 [25] was 80%.
